# Results taken from the DeepSol protein solubility set.
# Experiment: soluble on expression in E. coli; label from the status in PepcDB or PDB records
row,Sequence,soluble on expression in E. coli
1,MAAPLGGMFSGQPPGPPQAPPGLPGQASLLQAAPGAPRPSSSTLVDELESSFEACFASLVSQDYVNGTDQEEIRTGVDQCIQKFLDIARQTECFFLQKRLQLSVQKPEQVIKEDVSELRNELQRKDALVQKHLTKLRHWQQVLEDINVQHKKPADIPQGSLAYLEQASANIPAPLKPTLEHHHHHH,not soluble
2,MGSDKIHHHHHHMKYFVSRSIYTFNSGVEHSQANRTLLFNASGDQARYVTRDYNRLWVRDAERVNLNSTNVLNMYDFFQGTSAVECVQLPVREFKQLALNEYQLVEHGADYSTVDHAGRQLARINIMPGTVGLVGDIEYYDRFETVVSRENFDWRGFKSSIDYFHPDGSLGVRRFLNLAGEVVLENTYMNVEGQLQPTMWKLVNYHGKNYRFDTEDQLFLFFLNEVTQQTTDNVVVSDHRELDYVIADVENATSKWVALHGSHVDQGGTPFAAYSIALQIRAQDFDGIIVPTQEQQLELKEQFPELNVQVAPDVAISPELINSKPVWLRDRIAGRIIFSGRLEADKRPMEALKAFFKVLEQFLTLRWNLGDILTTKTC,not soluble
3,MSLSTRVFPERPILVVDDERAALDGFEVALVSSGYTNIVTMDDSRKVLPFIAEHEAELILLDLIMPHVSGTELIEEIKRRRPEVPIIIITAVNDIDSVVECIRNGAQDYILKPVDKDHLRNRVQQALERRELERENRLLRASLLDGEIRHPEAFSDIVTQDQKMHAIFRYCEAVAPSTKPILITGETGTGKELVAQALHRLSGRKGEFVAVNIAAFDDPVFADTLFGHSRGAFTGADTPRAGLVEKAAGGTLFLDEIGDLPALSQVKLLRLLQEKEYFPVGSDNAKKANVRIVASTLKNLVDLRHRGLFRDDLYYRLTTHRIHIPPLRERPGDIPCLLDHFLELDAREQKRKPPSYHPELINLLRSYAFPGNIRELRGMISDAFMNHASHMLSSSSFRQYIMNEGHHHHHH,soluble
4,SNAMIAKEFETFLLGQEETFLTPAKNLAVLIDTHNADHATLLLSQMTYTRVPVVTDEKQFVGTIGLRDIMAYQMEHDLSQEIMADTDIVHMTKTDVAVVSPDFTITEVLHKLVDESFLPVVDAEGIFQGIITRKSILKAVNALLHDFSKEYEIRCQ,soluble
5,GSHSMRYFYTAVSRPGRGEPHFIAVGYVDDTQFVRFDSDAASPRGEPRAPWVEQEGPEYWDRETQKYKRQAQTDRVSLRNLRGYYNQSEAGSHIIQRMYGCDVGPDGRLLRGYDQYAYDGKDYIALNEDLRSWTAADTAAQITQRKWEAAREAEQLRAYLEGLCVEWLRRYLKNGKETLQRAEHPKTHVTHHPVSDHEATLRCWALGFYPAEITLTWQWDGEDQTQDTELVETRPAGDGTFQKWAAVVVPSGEEQRYTCHVQHEGLPEPLTLRWEPSS,soluble
6,MSLEKYNAEVERDPFANRVFEQEEKRELTSEQRIAYENIKEKINNSEQRTFLLHGVTGSGKTEVYLQTIEEVLNKGKEAMMLVPEIALTPQMVLRFKRRFGDDVAVLHSGLSNGERYDEWQKIRDGRARVSVGARSSIFAPFKNLGIIIIDEEHESTYKQEDYPRYHARDIAEWRSQFHQCPLVLGSATPSLESYARTEKGVYQLLTLPTRVNQQALPSIDIVDMREELSAGNRSMFSNELREAIEDRLRKNEQIVLFLNRRGYASFMLCRDCGYVPQCPHCDISLTYHKSTDQLKCHYCGYHEVPPNKCPNCESSHIRQVGTGTQRVEEILQQEFEEARIIRMDVDTTSRKGAHEKLLNEFEEGKGDILLGTQMIAKGLDYPNITLVGVLNADTMLNLPDFRASERTYQLLTQVAGRAGRHDKPGRVIIQTYNPEHYAIQDVQKNDYLTFYQKEMEYRKIGKYPPYYFLINFTISHKNMKKVMEASKHIHQILLQHLTDRALVLGPSPAAIARINNEHRFQILVKYKSEPELLKALQYLDDYYHEAYLKNKLALKIDINPQILMEGHHHHHH,soluble
7,MGSDKIHHHHHHMRDQQLFLFGGGPPFTPMLCRQFVSCLKQSGPVALLYVPRPGSNWDDYAPIYTDALTANGVTDFFHFPLSARPTSEQLEQLAGSAGIIISGGETERYQQFIVGTPIGTIIQERFQHGVPVAGFSAGALLTPDECRIPVIDQRNGQALVLKGLGLLTDAVISVHYDTWQEETNLSDAFMKTASNFGYGLPERSGIHLKNGQLMQQEGPEVVLLRQKGEYI,not soluble
8,SNARGLGSELKDSIPVAELSASGPFESHDLLRKGFSCVKNELLPSHPLELSEKNFQLNQDKMNFSTLRNIQGLFAPLKLQMEFKAVQQVHRLPFLPSSNLSLDILRGNDETIGFEDILNDPSQSELMGEPHVMVEHKLGLL,soluble
9,LTDDPGSGFTTVWNAVVSELNGDPKVDDGPSSDANLSAPLTPQQRAWLNLVQPLTIVEGFALLSVPSSFVQNEIERHLRAPITDALSRRLGHQIQLGVRIAPPATDEADDTTVPPSENPATTSPDTTTDNDEIDDSAAARGDNQHSWPSYFTERPHNTDSATAGVTSLNRRYTFDTFVIGASNRFAHAAALAIAEAPARAYNPLFIWGESGLGKTHLLHAAGNYAQRLFPGMRVKYVSTEEFTNDFINSLRDDRKVAFKRSYRDVDVLLVDDIQFIEGKEGIQEEFFHTFNTLHNANKQIVISSDRPPKQLATLEDRLRTRFEWGLITDVQPPELETRIAILRKKAQMERLAVPDDVLELIASSIERNIRELEGALIRVTAFASLNKTPIDKALAEIVLRDLIADANTMQISAATIMAATAEYFDTTVEELRGPGKTRALAQSRQIAMYLCRELTDLSLPKIGQAFGRDHTTVMYAQRKILSEMAERREVFDHVKELTTRIRQRSKR,soluble
10,MLNNPVGWFEIYVNDMERAKTFYETVLKVSLEEMPNPTSMPIKMLTFPSNMEKYGASGALVKMEGICAGGGGTLIYFSSDDCAVEQERIVAAGGQIHTPKMSIGEYGFITLAVDTEGNLFGLHSMQ,not soluble
11,MKSGVIPSSAVGQKINEWYRYIRTFSVPDAEVLKAEIQQELKHMQHDSNLLLYYSLMEFRHQLMLDYLEPLEKLNIEDQPSLSELSRNIDSNQADLKGLLDYYVNFFRGMYEFDKREFISAITYYKQAEKKLSFVADHIERAEFYFKIAEAYYYMKQTYFSLINIKNAYEIYVEQETYNVRIIQCHFVFGVNLMDERNFEQAARHFKLALNMAQAEQKAQLVGRAYYNLGLCYYNQDLLDPAIDYFEKAVSTFESSRIVNSLPQAYFLITLIYYKQGKHDKASEYHKRGYEYAKETDDADYAVKFEFLQSLYLDQPNEEGIERCFQYLKNKNMYADIEDLALEVAKYYYEQKWFKLSASYFLQVEEARKQIQRSEGLYEIEI,soluble
12,MGSDKIHHHHHHMRSPNFYTYAFLNTPDVPLRLPSGNLGQLLLINGNNISAVVEPGISLESSQNNDEEVIKMVLAHDRVICELSQQTTVLPLRFGTYFNSEETLLNHIESHAQEYQKKLDNIQGKTEYTLKLIPRKFEELAKISGGHGRDYFLAKKLHYEHQKSFIGDQNREKHHLINLMMDIYRSSAIIQDYVEEVRLHLLVDRHDKALLFKQVLTLQEKCPHWNLILGEPLPPYHFV,not soluble
13,MTFQETISAYIQERYQITPDFPFKKHPDYLVFRHPRNAKWFALIMPLDAQLLGATENKQLTILTVKLAPELIALLKNQPGYFPAYHMNKEHWLSLSEEIPLSQVFSFIDESYQRSY,not soluble
14,GPGSMVRKNMYDGWSYERLRQQRNRAHFLLEDPYRFVTVLLHNGKLYAIDSPCYHASGPLGEGELMDLEDSHTAASVACLRCPWHNILVAIDTGEIVEVHPDTSAVRGKDDGGRELAAPSYPLRPHWEASAGSVRLSRGNVVQRTHKVSLDESNGIMTIEIEDEATMRRHPLPSDAAAGILESGALTMQIFDIKSKGMS,soluble
15,MTTVRQRIDTQHRDAIHDAQLNIYGSRLATCGSDRLVKIFEVRPNGQSYPMAELVGHSGPVWKVSWAHPKYGGLLASASYDKKVIIWNEQQGRWQKAYEWAAHEASTTCVAFAPHQYGLMLASASADGDIGILRYDNSSNEWISSKIQKCHEQGVNSVCWAPGSADPAAKKRLVSAGNDKNVKIWAFDDATNEWILEKTLAGHTDFVREAAWCPVTNNGQHTIVSCGMEGNLVLFRTSNIETEEWKAKLLETAPCALYHSSFSPCGSFLSVAGDDNVITIWRENLQGQWIKVPRDNKEREGMSQAVGAPGAQR,not soluble
16,MPDMANVESFDLDHTKVKAPYVRLAGVKTTPKGDQISKYDLRFLQPNQGAIDPAAIHTLEHLLAGYMRDHLEGVVDVSPMGCRTGMYMAVIGEPDEQGVMKAFEAALKDTAGHDQPIPGVSELECGNYRDHDLAAARQHARDVLDQGLKVQETILLERGSHHHHHH,soluble
17,MAEKKLLLGDEAIALGAIHAGISGVYAYPGTPSTEITEFIQNNRLAKERKLHSTWCTNEKTAMEAALGMSYAGKRALVCMKHVGMNVAADAFVNSAITGVNGGLVVLAADDPSMHSSQNEQDSRFYGKFAMIPMLEPSSQQEAYDMMDYAYTLSEKLKLPVLMRVVTRLAHSRAGVEVADIREENQLNPD,soluble
18,MGSDKIHHHHHHMDTPINAPLRKLPIGIQSFEKLRSENFLYVDKTALIYRLAQAGNPCFLSRPRRFGKSLLLSSFEAYFQGKKELFRGLAIEKLEKEWLQYPVLHLSLNAEKYDSREGLIDILERQLRQWEELYRTGGEGITHSGRFMTVIRRACEQTGRRVVVLIDEYDKPLLRSFDSQELQHDFRETLTAFYTVLKDADPWLQFVFITGVTKFAQMGIFSNLNQLNDISFDLDYNTLCGMTRAEIEATFSPELEALAVKSNATCRQVMDRLTRQYDGYRFTKDEEFTSMYNPFSVLSALQKRSYGNYWFASGTPTFLVEMLQKTDFDLREMEGIEVNEASLSDDRADINNPIPMIYQSGYLTIKDYDERFRMYTLGFPNEEVKYGFLNFVSPFYTPIAQTDTSFYIGKFIRELESGDVDAFLTRLRCFFAGIPYDLNDRTERHYQTVFYLVFQLMGQFTETEVRSARGRADAVVKTPDYIYVFEFKLNDSAEAALRQIDEKGYLLPYQADGRKVVKVGVAFEKEERNIGEWMIGG,not soluble
19,MRDIQMVLERWGAWAANNHEDVTWSSIAAGFKGLITSKVKSRPQCCDDDAMIICGCMARLKKNNSDLHDLLVDYYVVGMTFMSLAGKHCCSDGYIGKRLQKAEGIIEGMLMALDIRLEMDIVVNNSNLEHHHHHH,not soluble
20,MGSDKIHHHHHHMNDTPPPPSCARCSAVWQKSGTTNCWSNPDNRPGRPADCPSSAHGDIVASSFDEYRGESDDARLARVAARVEGLCYRKMTGSDAVVARWTRVEDTIALAKLMGWSKVGIATCIGLLDETRQLATILEAQGLEPVSVCCKAGSIDKLELGLDESDKVRPGTFEPACNPVAQAEVLNRCGTHMNIIVGLCVGHDMLFTKHSAAPVTTLVCKDRVTGHNPVAVLYGQNFYFKRLQKMPIDIPEGEE,not soluble
21,MPDELKPHFANVQAHYDLSDDFFRLFLDPTQTYSCAYFERDDMTLQEAQIAKIDLALGKLGLQPGMTLLDVGCGWGATMMRAVEKYDVNVVGLTLSKNQANHVQQLVANSENLRSKRVLLAGWEQFDEPVDRIVSIGAFEHFGHERYDAFFSLAHRLLPADGVMLLHTITGLHPKEIHERGLPMSFTFARFLKFIVTEIFPGGRLPSIPMVQECASANGFTVTRVQSLQPHYAKTLDLWSAALQANKGQAIALQSEEVYERYMKYLTGCAEMFRIGYIDVNQFTCQK,soluble
22,SNANNLFVYCEIEEGIVADVSLELLTKGRSLANELNCQLEAVVAGTGLKEIEKQILPYGVDKLHVFDAEGLYPYTSLPHTSILVNLFKEEQPQICLMGATVIGRDLGPRVSSALTSGLTADCTSLEIGDHEDKKEGKVYKNLLYQIRPAFGGNIVATIVNPEHRPQMATVREGVMKKEIVSPAYQGEVIRHDVKKYVADTDYVVKVIERHVEKAKNN,soluble
